The labels stand for the following.
B1: Peroxisome proliferator-activated receptor delta, residues 71 to 145; numbered along this chain, Q03181 (parent)
chain: NMECRVCGDKASGFHYGVHACEGCKGFFRRTIRMKLEYEKCERSCKIQKKNRNKCQYCRFQKCLALGMSHNAIRF

± gives the uncertainty stated by the source.

Abundance fitness data for 36 variants are collected here from the Human Domainome abundance scans (Beltran et al. 2025).

The variants in the data set derive from B1. The data set can be described thus: abundance fitness (aPCA) (normalised: wild type 0, dead -1); higher = more abundant; growth selection in yeast, the domain comes from the species named. The note with it: Homo sapiens.
With NMEPRVCGDKASGFHYGVHACEGCKGFFRRTIRMKLEYEKCERSCKIQKKNRNKCQYCRFQKCLALGMSHNAIRF [C4P], the abundance fitness was -1.07 ± 0.18.
For the variant NMERRVCGDKASGFHYGVHACEGCKGFFRRTIRMKLEYEKCERSCKIQKKNRNKCQYCRFQKCLALGMSHNAIRF [C4R], the abundance fitness was -0.558 ± 0.07.
With NMEIRVCGDKASGFHYGVHACEGCKGFFRRTIRMKLEYEKCERSCKIQKKNRNKCQYCRFQKCLALGMSHNAIRF [C4I] the figure was -1.14 ± 0.4; with NMESRVCGDKASGFHYGVHACEGCKGFFRRTIRMKLEYEKCERSCKIQKKNRNKCQYCRFQKCLALGMSHNAIRF [C4S], -0.669 ± 0.082; with NMEQRVCGDKASGFHYGVHACEGCKGFFRRTIRMKLEYEKCERSCKIQKKNRNKCQYCRFQKCLALGMSHNAIRF [C4Q], -0.738 ± 0.12.
The value for NMENRVCGDKASGFHYGVHACEGCKGFFRRTIRMKLEYEKCERSCKIQKKNRNKCQYCRFQKCLALGMSHNAIRF [C4N] was -0.738 ± 0.2; that for NMETRVCGDKASGFHYGVHACEGCKGFFRRTIRMKLEYEKCERSCKIQKKNRNKCQYCRFQKCLALGMSHNAIRF [C4T] was -0.962 ± 0.15; that for NMEMRVCGDKASGFHYGVHACEGCKGFFRRTIRMKLEYEKCERSCKIQKKNRNKCQYCRFQKCLALGMSHNAIRF [C4M] was -0.461 ± 0.11.
With NMEWRVCGDKASGFHYGVHACEGCKGFFRRTIRMKLEYEKCERSCKIQKKNRNKCQYCRFQKCLALGMSHNAIRF [C4W] the figure was -0.747 ± 0.13; with NMEYRVCGDKASGFHYGVHACEGCKGFFRRTIRMKLEYEKCERSCKIQKKNRNKCQYCRFQKCLALGMSHNAIRF [C4Y], -0.693 ± 0.14.
Take NMEKRVCGDKASGFHYGVHACEGCKGFFRRTIRMKLEYEKCERSCKIQKKNRNKCQYCRFQKCLALGMSHNAIRF [C4K]: the abundance fitness is -0.775 ± 0.13.
On to NMEHRVCGDKASGFHYGVHACEGCKGFFRRTIRMKLEYEKCERSCKIQKKNRNKCQYCRFQKCLALGMSHNAIRF [C4H], for which the abundance fitness was -0.576 ± 0.17.
As for NMECRVCEDKASGFHYGVHACEGCKGFFRRTIRMKLEYEKCERSCKIQKKNRNKCQYCRFQKCLALGMSHNAIRF [G8E], the abundance fitness is -0.32 ± 0.061.
For the variant NMECRVCADKASGFHYGVHACEGCKGFFRRTIRMKLEYEKCERSCKIQKKNRNKCQYCRFQKCLALGMSHNAIRF [G8A], the abundance fitness is -0.382 ± 0.052.
Turning to NMECRVCCDKASGFHYGVHACEGCKGFFRRTIRMKLEYEKCERSCKIQKKNRNKCQYCRFQKCLALGMSHNAIRF [G8C], the abundance fitness was -0.582 ± 0.095.
For NMECRVCFDKASGFHYGVHACEGCKGFFRRTIRMKLEYEKCERSCKIQKKNRNKCQYCRFQKCLALGMSHNAIRF [G8F], the abundance fitness was -0.779 ± 0.23.
The value for NMECRVCDDKASGFHYGVHACEGCKGFFRRTIRMKLEYEKCERSCKIQKKNRNKCQYCRFQKCLALGMSHNAIRF [G8D] was -0.434 ± 0.1; that for NMECAVCGDKASGFHYGVHACEGCKGFFRRTIRMKLEYEKCERSCKIQKKNRNKCQYCRFQKCLALGMSHNAIRF [R5A] was 0.175 ± 0.034; that for NMECQVCGDKASGFHYGVHACEGCKGFFRRTIRMKLEYEKCERSCKIQKKNRNKCQYCRFQKCLALGMSHNAIRF [R5Q] was 0.113 ± 0.047.
With NMECDVCGDKASGFHYGVHACEGCKGFFRRTIRMKLEYEKCERSCKIQKKNRNKCQYCRFQKCLALGMSHNAIRF [R5D] the figure was 0.032 ± 0.05; with NMECKVCGDKASGFHYGVHACEGCKGFFRRTIRMKLEYEKCERSCKIQKKNRNKCQYCRFQKCLALGMSHNAIRF [R5K], 0.139 ± 0.05.
Regarding NMECVVCGDKASGFHYGVHACEGCKGFFRRTIRMKLEYEKCERSCKIQKKNRNKCQYCRFQKCLALGMSHNAIRF [R5V], the abundance fitness was determined as 0.091 ± 0.035.
Regarding NMECGVCGDKASGFHYGVHACEGCKGFFRRTIRMKLEYEKCERSCKIQKKNRNKCQYCRFQKCLALGMSHNAIRF [R5G], the abundance fitness is -0.045 ± 0.031.
The value for NMECTVCGDKASGFHYGVHACEGCKGFFRRTIRMKLEYEKCERSCKIQKKNRNKCQYCRFQKCLALGMSHNAIRF [R5T] was -0.018 ± 0.043.
Turning to NMECIVCGDKASGFHYGVHACEGCKGFFRRTIRMKLEYEKCERSCKIQKKNRNKCQYCRFQKCLALGMSHNAIRF [R5I], the abundance fitness is -0.176 ± 0.067.
The value for NMECFVCGDKASGFHYGVHACEGCKGFFRRTIRMKLEYEKCERSCKIQKKNRNKCQYCRFQKCLALGMSHNAIRF [R5F] was -0.326 ± 0.091; that for NMECMVCGDKASGFHYGVHACEGCKGFFRRTIRMKLEYEKCERSCKIQKKNRNKCQYCRFQKCLALGMSHNAIRF [R5M] was 0.067 ± 0.048.
The value for NMECNVCGDKASGFHYGVHACEGCKGFFRRTIRMKLEYEKCERSCKIQKKNRNKCQYCRFQKCLALGMSHNAIRF [R5N] was 0.089 ± 0.064.
The value for NMECSVCGDKASGFHYGVHACEGCKGFFRRTIRMKLEYEKCERSCKIQKKNRNKCQYCRFQKCLALGMSHNAIRF [R5S] was 0.034 ± 0.038.
Take NMECLVCGDKASGFHYGVHACEGCKGFFRRTIRMKLEYEKCERSCKIQKKNRNKCQYCRFQKCLALGMSHNAIRF [R5L]: the abundance fitness is 0.003 ± 0.037.
With NMECCVCGDKASGFHYGVHACEGCKGFFRRTIRMKLEYEKCERSCKIQKKNRNKCQYCRFQKCLALGMSHNAIRF [R5C] the figure was -0.13 ± 0.063.
The value for NMECPVCGDKASGFHYGVHACEGCKGFFRRTIRMKLEYEKCERSCKIQKKNRNKCQYCRFQKCLALGMSHNAIRF [R5P] was -0.376 ± 0.055.
With NMECEVCGDKASGFHYGVHACEGCKGFFRRTIRMKLEYEKCERSCKIQKKNRNKCQYCRFQKCLALGMSHNAIRF [R5E] the figure was 0.105 ± 0.045; with NMECHVCGDKASGFHYGVHACEGCKGFFRRTIRMKLEYEKCERSCKIQKKNRNKCQYCRFQKCLALGMSHNAIRF [R5H], -0.257 ± 0.1.
For the variant NMECWVCGDKASGFHYGVHACEGCKGFFRRTIRMKLEYEKCERSCKIQKKNRNKCQYCRFQKCLALGMSHNAIRF [R5W], the abundance fitness is -0.118 ± 0.047.
Regarding NMECYVCGDKASGFHYGVHACEGCKGFFRRTIRMKLEYEKCERSCKIQKKNRNKCQYCRFQKCLALGMSHNAIRF [R5Y], the abundance fitness is -0.085 ± 0.088.
